Target: NRP2 endogenous on U251 glioblastoma cells and on human lymphatic endothelial cells (HLEC) (human) (UniProt O60462)
Assay: cell-based or functional assay

NRP2 endogenous on U251 glioblastoma cells and on human lymphatic endothelial cells (HLEC) (human), sequence (O60462 21-931): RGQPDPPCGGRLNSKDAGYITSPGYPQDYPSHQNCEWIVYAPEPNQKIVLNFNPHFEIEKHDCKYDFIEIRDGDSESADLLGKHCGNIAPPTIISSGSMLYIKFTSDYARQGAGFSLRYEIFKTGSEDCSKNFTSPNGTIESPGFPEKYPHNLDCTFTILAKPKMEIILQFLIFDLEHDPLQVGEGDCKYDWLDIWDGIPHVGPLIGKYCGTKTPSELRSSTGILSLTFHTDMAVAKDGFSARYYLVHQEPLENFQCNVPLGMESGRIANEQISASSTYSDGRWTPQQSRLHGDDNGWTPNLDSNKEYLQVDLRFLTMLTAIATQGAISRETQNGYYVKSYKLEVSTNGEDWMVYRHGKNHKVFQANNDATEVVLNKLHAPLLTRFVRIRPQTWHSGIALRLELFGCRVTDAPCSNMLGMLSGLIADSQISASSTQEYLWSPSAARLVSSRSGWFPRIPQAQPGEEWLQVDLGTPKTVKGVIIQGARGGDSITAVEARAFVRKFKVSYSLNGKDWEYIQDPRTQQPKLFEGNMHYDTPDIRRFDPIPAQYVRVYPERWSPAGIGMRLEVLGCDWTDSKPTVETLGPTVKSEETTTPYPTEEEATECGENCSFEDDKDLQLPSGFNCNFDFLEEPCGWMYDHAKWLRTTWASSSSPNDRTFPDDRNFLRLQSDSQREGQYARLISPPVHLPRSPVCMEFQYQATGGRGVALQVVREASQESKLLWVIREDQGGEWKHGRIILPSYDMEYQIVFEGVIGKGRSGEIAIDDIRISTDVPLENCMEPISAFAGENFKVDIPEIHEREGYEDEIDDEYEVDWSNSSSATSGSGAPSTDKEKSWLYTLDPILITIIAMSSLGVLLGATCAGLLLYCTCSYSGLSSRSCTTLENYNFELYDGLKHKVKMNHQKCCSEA

Semaphorin 3F (SEMA3F) (from UniProt Q13275 19-779) (ligand)
decrease in intracellular phospho-Akt levels in U251 cells: 50%
